System: Escherichia coli TOP10
Assay: shrunken log2 fold change of peptide-encoding DNA abundance (4.5 h post-induction vs induction); higher = less antimicrobial activity (less host growth inhibition)
Conditions: time post-induction: 4.5 h; library: site-saturation at positions 5, 18, 19, 20
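Note: peptides expressed intracellularly from a pBAD plasmid library in pooled LB shake-flask culture, induced with 0.3% L-arabinose, DNA abundance read by NGS, three biological replicates, DESeq2 with apeglm shrinkage.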

Row | Sequence | shrunken log2 fold change
1 | RRIRLRPPRLPRPRPRPPHMPRP | -0.0106
2 | RRIRTRPPRLPRPRPRPKEPPRP | -0.00172
3 | RRIRRRPPRLPRPRPRPFWKPRP | 0.111
4 | RRIRERPPRLPRPRPRPHNGPRP | 0.0109
5 | RRIRQRPPRLPRPRPRPRSLPRP | -0.0177
6 | RRIRLRPPRLPRPRPRPTNHPRP | -0.174
7 | RRIRPRPPRLPRPRPRPMPDPRP | 0.163
8 | RRIRSRPPRLPRPRPRPSIAPRP | -0.167
9 | RRIRVRPPRLPRPRPRPTHMPRP | 0.0408
10 | RRIRQRPPRLPRPRPRPCYAPRP | -0.251
11 | RRIRRRPPRLPRPRPRPRAMPRP | 0.145
12 | RRIRIRPPRLPRPRPRPTITPRP | -0.996
13 | RRIRKRPPRLPRPRPRPRHMPRP | -0.0275
14 | RRIRCRPPRLPRPRPRPCMQPRP | -0.345
15 | RRIRPRPPRLPRPRPRPYVGPRP | -0.157
16 | RRIRFRPPRLPRPRPRPQRDPRP | 0.218
17 | RRIRNRPPRLPRPRPRPPGLPRP | 0.46
18 | RRIRKRPPRLPRPRPRPNTQPRP | -0.0781
19 | RRIRQRPPRLPRPRPRPWIDPRP | -0.0353
20 | RRIRTRPPRLPRPRPRPFSWPRP | -0.294
21 | RRIRERPPRLPRPRPRPPPGPRP | 0.418
22 | RRIRFRPPRLPRPRPRPPGDPRP | 0.58
23 | RRIRERPPRLPRPRPRPRACPRP | 0.177
24 | RRIRPRPPRLPRPRPRPHGLPRP | 0.026
25 | RRIRQRPPRLPRPRPRPHTSPRP | 0.0894

Row | Sequence | shrunken log2 fold change
26 | RRIRYRPPRLPRPRPRPGMKPRP | -0.067
27 | RRIRPRPPRLPRPRPRPTAEPRP | 0.595
28 | RRIRTRPPRLPRPRPRPCTTPRP | -0.0816
29 | RRIRMRPPRLPRPRPRPGYQPRP | -0.0727
30 | RRIRMRPPRLPRPRPRPLFEPRP | 0.633
31 | RRIRVRPPRLPRPRPRPWFFPRP | -0.148
32 | RRIRCRPPRLPRPRPRPMMDPRP | -0.117
33 | RRIRCRPPRLPRPRPRPTICPRP | -0.142
34 | RRIRPRPPRLPRPRPRPNQNPRP | -0.178
35 | RRIRLRPPRLPRPRPRPWMAPRP | -0.346
36 | RRIRHRPPRLPRPRPRPPIEPRP | -0.809
37 | RRIRSRPPRLPRPRPRPGPRPRP | 0.659
38 | RRIRGRPPRLPRPRPRPRAWPRP | 1.31
39 | RRIRIRPPRLPRPRPRPAIVPRP | -0.135
40 | RRIRRRPPRLPRPRPRPRNHPRP | -0.0441
41 | RRIRQRPPRLPRPRPRPNCWPRP | 0.0822
42 | RRIRIRPPRLPRPRPRPTKPPRP | -0.0472
43 | RRIRHRPPRLPRPRPRPFNFPRP | -0.648
44 | RRIRCRPPRLPRPRPRPMEWPRP | 0.0244
45 | RRIRRRPPRLPRPRPRPGDDPRP | 0.362
46 | RRIRYRPPRLPRPRPRPCWTPRP | -0.374
47 | RRIRMRPPRLPRPRPRPTMGPRP | 0.253
48 | RRIRYRPPRLPRPRPRPFCNPRP | -0.0455
49 | RRIRFRPPRLPRPRPRPWVYPRP | -0.327
50 | RRIRWRPPRLPRPRPRPEFVPRP | 0.423

Row | Sequence | shrunken log2 fold change
51 | RRIRQRPPRLPRPRPRPAESPRP | 0.0234
52 | RRIRERPPRLPRPRPRPPLSPRP | -0.212
53 | RRIRMRPPRLPRPRPRPQCNPRP | 0.041
54 | RRIRFRPPRLPRPRPRPWVQPRP | -0.116
55 | RRIRTRPPRLPRPRPRPHIQPRP | -0.0986
56 | RRIRPRPPRLPRPRPRPMSYPRP | 0.296
57 | RRIRKRPPRLPRPRPRPNTLPRP | -0.0816
58 | RRIRNRPPRLPRPRPRPTYMPRP | -0.596
59 | RRIRSRPPRLPRPRPRPGMQPRP | -0.394
60 | RRIRQRPPRLPRPRPRPYYHPRP | -0.413
61 | RRIRWRPPRLPRPRPRPIHIPRP | -0.694
62 | RRIRERPPRLPRPRPRPPNMPRP | -0.251
63 | RRIRWRPPRLPRPRPRPNRYPRP | 0.0333
64 | RRIRYRPPRLPRPRPRPNHFPRP | -0.0628
65 | RRIRDRPPRLPRPRPRPAQPPRP | 0.278
66 | RRIRDRPPRLPRPRPRPRTVPRP | -0.142
67 | RRIRDRPPRLPRPRPRPRFEPRP | 0.0618
68 | RRIRERPPRLPRPRPRPVFNPRP | -0.329
69 | RRIRERPPRLPRPRPRPAMDPRP | 0.283
70 | RRIRPRPPRLPRPRPRPYNHPRP | -1.2
71 | RRIRKRPPRLPRPRPRPSKPPRP | 0.0859
72 | RRIRIRPPRLPRPRPRPWWHPRP | -0.218
73 | RRIRWRPPRLPRPRPRPSKFPRP | -0.0435
74 | RRIRHRPPRLPRPRPRPFHTPRP | -0.0888
75 | RRIRNRPPRLPRPRPRPKLDPRP | 0.00863

Row | Sequence | shrunken log2 fold change
76 | RRIRPRPPRLPRPRPRPAYPPRP | 0.0124
77 | RRIRWRPPRLPRPRPRPWWYPRP | -0.203
78 | RRIRFRPPRLPRPRPRPYHPPRP | -0.58
79 | RRIRTRPPRLPRPRPRPNKFPRP | -0.37
80 | RRIRLRPPRLPRPRPRPHYQPRP | -0.361
81 | RRIRSRPPRLPRPRPRPNSNPRP | -0.857
82 | RRIRARPPRLPRPRPRPPEYPRP | 0.386
83 | RRIRNRPPRLPRPRPRPSFIPRP | -0.934
84 | RRIRNRPPRLPRPRPRPKNIPRP | -0.483
85 | RRIRMRPPRLPRPRPRPDHRPRP | -0.279
86 | RRIRGRPPRLPRPRPRPWVTPRP | 0.0039
87 | RRIRNRPPRLPRPRPRPGATPRP | 0.124
88 | RRIRLRPPRLPRPRPRPCWIPRP | -0.241
89 | RRIRPRPPRLPRPRPRPTDNPRP | -0.134
90 | RRIRFRPPRLPRPRPRPYDNPRP | -0.775
91 | RRIRTRPPRLPRPRPRPFQSPRP | 0.00942
92 | RRIRRRPPRLPRPRPRPQSFPRP | 0.0366
93 | RRIRIRPPRLPRPRPRPSMMPRP | -0.886
94 | RRIRCRPPRLPRPRPRPAQIPRP | 0.00931
95 | RRIRWRPPRLPRPRPRPPIVPRP | 0.19
96 | RRIRGRPPRLPRPRPRPTWFPRP | 0.281
97 | RRIRFRPPRLPRPRPRPMRGPRP | 0.664
98 | RRIRERPPRLPRPRPRPEVPPRP | -0.00233
99 | RRIRERPPRLPRPRPRPYHPPRP | -0.248
100 | RRIRCRPPRLPRPRPRPMAMPRP | 0.106

Row | Sequence | shrunken log2 fold change
101 | RRIRDRPPRLPRPRPRPYCCPRP | -0.151
102 | RRIRSRPPRLPRPRPRPAAPPRP | 0.66
103 | RRIRLRPPRLPRPRPRPARNPRP | 0.483
104 | RRIRWRPPRLPRPRPRPLDQPRP | -0.0549
105 | RRIRYRPPRLPRPRPRPASAPRP | 0.0949
106 | RRIRPRPPRLPRPRPRPEYTPRP | -0.0863
107 | RRIRQRPPRLPRPRPRPVGWPRP | 0.72
108 | RRIRARPPRLPRPRPRPWASPRP | -0.145
109 | RRIRNRPPRLPRPRPRPTEFPRP | -0.043
110 | RRIRIRPPRLPRPRPRPLMAPRP | -0.408
111 | RRIRSRPPRLPRPRPRPKFFPRP | 0.113
112 | RRIRIRPPRLPRPRPRPTLEPRP | 2.35
113 | RRIRPRPPRLPRPRPRPGWVPRP | 0.405
114 | RRIRSRPPRLPRPRPRPVWLPRP | -0.388
115 | RRIRMRPPRLPRPRPRPQWRPRP | 1.5
116 | RRIRKRPPRLPRPRPRPMRNPRP | 1.32
117 | RRIRVRPPRLPRPRPRPNICPRP | 0.27
118 | RRIRLRPPRLPRPRPRPPALPRP | 0.696
119 | RRIRARPPRLPRPRPRPVMFPRP | 0.283
120 | RRIRERPPRLPRPRPRPFDYPRP | 0.155
121 | RRIRFRPPRLPRPRPRPWFGPRP | -0.191
122 | RRIRNRPPRLPRPRPRPSKKPRP | -0.0392
123 | RRIRHRPPRLPRPRPRPIVAPRP | 0.0238
124 | RRIRKRPPRLPRPRPRPEPDPRP | 0.877
125 | RRIRSRPPRLPRPRPRPACNPRP | -0.285

Row | Sequence | shrunken log2 fold change
126 | RRIRHRPPRLPRPRPRPGLFPRP | -0.0985
127 | RRIRCRPPRLPRPRPRPLYCPRP | -0.593
128 | RRIRVRPPRLPRPRPRPEELPRP | -0.0522
129 | RRIRERPPRLPRPRPRPNSVPRP | 0.0407
130 | RRIRCRPPRLPRPRPRPFRFPRP | -0.83
131 | RRIRSRPPRLPRPRPRPGYFPRP | -0.335
132 | RRIRVRPPRLPRPRPRPYLQPRP | -0.946
133 | RRIRMRPPRLPRPRPRPVAEPRP | 2.88
134 | RRIRSRPPRLPRPRPRPVQHPRP | -0.0389
135 | RRIRHRPPRLPRPRPRPFCAPRP | 0.076
136 | RRIRIRPPRLPRPRPRPAFGPRP | 0.209
137 | RRIRIRPPRLPRPRPRPMCWPRP | -0.00326
138 | RRIRSRPPRLPRPRPRPFIIPRP | -0.34
139 | RRIRWRPPRLPRPRPRPWMIPRP | -0.0414
140 | RRIRGRPPRLPRPRPRPKTDPRP | 0.797
141 | RRIRPRPPRLPRPRPRPEEKPRP | -0.0155
142 | RRIRFRPPRLPRPRPRPEQQPRP | 0.171
143 | RRIRLRPPRLPRPRPRPGHIPRP | -0.197
144 | RRIRPRPPRLPRPRPRPADSPRP | -0.0563
145 | RRIRWRPPRLPRPRPRPASHPRP | 0.187
146 | RRIRERPPRLPRPRPRPSYVPRP | -0.264
147 | RRIRKRPPRLPRPRPRPRDDPRP | 0.365
148 | RRIRKRPPRLPRPRPRPYEQPRP | -0.0536
149 | RRIRTRPPRLPRPRPRPVSSPRP | 0.651
150 | RRIRPRPPRLPRPRPRPSQEPRP | -0.199
